These are literature values, as cited in paper PMC6426755.

The data set deals with CCL21 (Homo sapiens) (UniProt O00585). Description: SPR (Biacore).
Sequence of UniProt O00585 (O00585 24-134): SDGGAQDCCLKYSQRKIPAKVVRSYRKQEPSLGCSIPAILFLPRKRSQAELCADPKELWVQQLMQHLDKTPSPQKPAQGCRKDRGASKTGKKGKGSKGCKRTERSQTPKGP

As to podoplanin (from UniProt Q86YL7), the Kd is 70 nM.

The Kd is the equilibrium constant for the complex coming apart.
